Measurements: patent US20240207319A1 (LUDWIG INSTITUTE FOR CANCER RESEARCH, published 2024)
Positions count from the first letter of the chain named. Values belong to the binder of their own block, whether it stands above or below them.

Target: human PDL1 protein (plate-coated) (human, UniProt Q9NZQ7 19-238, limits assumed)
Assay: titration ELISA, soluble monomeric decoy on plates coated with human PDL1 protein, anti-His tag detection
Experimental: FIGS. 9A, 9B, 9C, and 9D are a set of diagrams showing characterization of PD-1 decoy variants and hCD8+ T cells transduced with the PD-1 decoy variants and tEGFR. […] Bound PD1 decoy molecules were detected with an anti-His tag antibody. […] The engineered T cells were co-cultured at a 1:1 ratio with different PD-L1⁺ target tumor cells (100,000 of each cell type) for 48 hours. NA8 and HLA/A2+NY-ESO-1−, SAOS2, and A375 are HLA/A2+ NY-ESO-1+. The supernatants were collected after 48 hours, diluted 1 in 25, and evaluated for the presence of IFNγ using a commercial ELISA kit from Thermo). […] CD8 T cells engineered with PD1 decoy_tEGFR retrovirus were labeled with chromium. The engineered T cells were co-cultured with anti-EGFR Ab and co-cultured with different ratios of PBMCs from the same donor. The negative control is NT (non-transduced) T cells Killing evaluated at 4 hours. As positive control, T cells were treated with HCl.

Chain of human PDL1 protein (plate-coated) (Q9NZQ7 19-238 limits assumed): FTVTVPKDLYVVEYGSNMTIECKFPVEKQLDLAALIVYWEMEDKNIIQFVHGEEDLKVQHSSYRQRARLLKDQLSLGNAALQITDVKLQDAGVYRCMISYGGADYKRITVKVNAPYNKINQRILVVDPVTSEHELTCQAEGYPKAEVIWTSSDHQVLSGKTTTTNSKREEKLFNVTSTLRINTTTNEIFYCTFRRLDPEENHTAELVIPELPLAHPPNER

fold better binding than the WT PD1 decoy: 10 fold
B1: PD1_4XMUT_M70 (with 6xHis), soluble monomeric PD1 decoy variant (bacterial production) (receptor)
chain: MASDSPDRPWNPPTFSPALLVVTEGDNATFTCSFSNTSESFVLNWYRMSPSNQDDRLAAFPEDRSQPGQDARFRVTQLPNGRDFHMSVVRARRNDSGTYFCGAISLAPKAKIKESLRAELRVTERRALEHHHHHH

fold better binding than the WT PD1 decoy: ~7.5 fold
B2: PD1_6XDM (with 6xHis), soluble monomeric PD1 decoy variant (bacterial production) (receptor)
chain: B1 chain with D54V, A110W
notes: also called 6×DM; variant 6×DM
